# Assays:
# [1] = biological target: R163W hCCS (human) (UniProt O14618); assay: SEC-MALS; Agilent BioSEC-3 column, 20 mM Tris-HCl, 150 mM NaCl (TBS) with 1 mM DTT, 20 °C; monomer to dimer
# [2] = biological target: R163W hCCS (human) (UniProt O14618); assay: SEC; GE Superdex 200 10/300, TBS with 1 mM DTT, 0.5 ml/min, 500 μl loaded; high concentrations (series from 26 up to 918 μM before the column); monomer to dimer
# [3] = biological target: copper chaperone for SOD1 (hCCS), wild-type, zinc metalated (human) (UniProt O14618); assay: SEC; reducing conditions as above but with metal apo (zinc deficient) SOD1, mixed 1:1 with Zn-hCCS; Agilent BioSEC-3, TBS with 1 mM DTT, 20 °C
# [4] = biological target: copper chaperone for SOD1 (hCCS), wild-type, zinc metalated (human) (UniProt O14618); assay: SEC-MALS; Agilent BioSEC-3 column, 20 mM Tris-HCl, 150 mM NaCl (TBS) with 1 mM DTT, 20 °C; monomer to dimer
# [5] = biological target: copper chaperone for SOD1 (hCCS), wild-type, zinc metalated (human) (UniProt O14618); assay: SEC; non-reducing time course with metal apo SOD1: SOD1 reduced and desalted into oxygen purged TBS, mixed with hCCS (copper apo/zinc holo or copper(I) loaded), incubated at 20 °C (8 minutes to 20 hours), then SEC
Substance,stoichiometry N [1],stoichiometry N [2],stoichiometry N [3],stoichiometry N [4],stoichiometry N [5]
R163W hCCS (from UniProt O14618 1-274) (natural protein),2,2,–,–,–
"copper chaperone for SOD1 (hCCS), wild-type, zinc metalated (from UniProt O14618 1-274) (natural protein)",–,–,2,2,2

# From paper PMC4901319
